Reference: patent US20120015841A1

Target: human GC-C (guanylate cyclase C) stably expressed in 293T cells (human) (UniProt P25092)
Test: cell-based or functional assay

Chain of human GC-C (guanylate cyclase C) stably expressed in 293T cells (human) (P25092 24-1073): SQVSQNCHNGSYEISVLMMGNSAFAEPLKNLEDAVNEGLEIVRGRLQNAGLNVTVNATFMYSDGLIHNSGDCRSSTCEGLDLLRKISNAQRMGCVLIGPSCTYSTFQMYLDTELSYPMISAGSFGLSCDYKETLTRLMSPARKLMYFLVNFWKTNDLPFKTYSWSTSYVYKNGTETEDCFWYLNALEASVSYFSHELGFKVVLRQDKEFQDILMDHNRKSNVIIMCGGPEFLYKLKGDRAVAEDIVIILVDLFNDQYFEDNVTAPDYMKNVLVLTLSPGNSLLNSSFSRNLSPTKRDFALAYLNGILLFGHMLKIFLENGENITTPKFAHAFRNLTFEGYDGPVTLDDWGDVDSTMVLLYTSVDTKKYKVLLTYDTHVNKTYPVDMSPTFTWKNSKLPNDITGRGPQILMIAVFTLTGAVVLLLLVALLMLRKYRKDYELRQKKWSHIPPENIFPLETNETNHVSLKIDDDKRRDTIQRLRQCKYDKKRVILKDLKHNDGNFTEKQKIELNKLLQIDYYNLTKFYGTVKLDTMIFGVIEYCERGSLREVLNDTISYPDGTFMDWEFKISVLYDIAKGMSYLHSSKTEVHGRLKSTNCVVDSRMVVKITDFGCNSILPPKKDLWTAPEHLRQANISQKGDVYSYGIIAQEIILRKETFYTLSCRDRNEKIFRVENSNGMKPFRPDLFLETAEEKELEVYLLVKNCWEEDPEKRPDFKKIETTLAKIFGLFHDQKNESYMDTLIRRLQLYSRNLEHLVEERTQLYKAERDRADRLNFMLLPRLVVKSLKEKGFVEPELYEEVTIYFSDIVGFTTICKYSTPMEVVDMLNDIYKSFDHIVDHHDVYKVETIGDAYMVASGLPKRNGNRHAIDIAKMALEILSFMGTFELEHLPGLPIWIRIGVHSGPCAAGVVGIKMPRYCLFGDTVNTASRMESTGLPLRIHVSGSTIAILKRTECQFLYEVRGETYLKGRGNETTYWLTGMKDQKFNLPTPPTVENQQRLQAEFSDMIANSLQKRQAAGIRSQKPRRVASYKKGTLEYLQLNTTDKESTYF

EC50 of the cGMP response (absorbance, Direct Cyclic GMP Enzyme Immunoassay Kit) to a guanylin dose-response, 30 min, GC-C-expressing 293T cell line: 1.1 nM
cGMP level in the GC-C-expressing cell line treated with low concentrations of guanylin: 6 pmol/mL
Substance: guanylin (peptide)
